Data: the DeepSol protein solubility set

Test: soluble on expression in E. coli; label from the status in PepcDB or PDB records

Sequence	soluble on expression in E. coli
MGSDKIHHHHHHESGDIITSDQMDEVDPVAGLNGMYAYLYKFDTMGYGDEAQHYDYGYHHILLCSDLWGQDMIQYSSKYGWYYTDYQFNQNSRAYQYISTFYFWNYLYKLIKSANDVLKTTTDDSKKEDRGQALGMRAFAYLTLVQMYQHTYAGHENAPAVPIVLETTEPDVLSNNPRASVKEVYDLIEKDLVQAHSDLSSYQRLNSTYIDQTVISGLLARMYLLKEDWTNAAKYAKEARASYGAPADKAELIDEGYIDMNKHHTWMFTSHITTDAEIVQTGIVNFISHISSTAYGYVTAGGMFKNISSELYSKIADNDIRKGWFADKDFTYEGGPMGSVALPKYANLKYMWYDLEGNNCNDLCYMRAEEMWLIEAEALAMGGNIAGGKSLLEEFVKTRQPDYVCDATDAKGIQDACWLQRRIEFWGEGIAWFDLKRLKKPIIRKYEGTNHNLDAQYDFPAEDDIFRILIPRKEIQDNNGIGEEDNNPMPNI	not soluble
MRAELWQEQRLQLSLTKELVQAIELLQYSAADLEAFLYEQSLENPFLEIRRTRVRQRPSRTERDQKQWLENIGARAETLVGHLLSQLPALKLGDREERIVRYLIASLDEDGYLRVPLAELAARFSASEQEMERGLRLVQSLDPPGVGARDLAECLLLQLERLPERDELAETIVRYHFVPFAEKSWKTLAKQLGVSLGELQRVFELIRTLEPRPGIHYSSETLPLVVPDVIVTRGADGDWMAAYNDDIHPELGWNRDYERRIAASGDRHAEQFIKEKYRQFTWLAKSLEQRKQTLLHLMAVIIDRQRSCLEFGLSALKPMTMREVAEELGVHESTVSRAVRHKYVQTPFGTVELRRFFSNAATAAGDEAASSAHVKAIMEALISEEDRRAPLSDQQLADLLRDRYGIAISRRTVAKYREQLRIPSSAKRRQYIGLP	not soluble
MVHSNGAITSTILKARHADVVRKTSLHHANDLTLIDLVLNVQRLLALPSDANFVLKYKDEEGDLVTLAEDSDLLLALHTSGATLDVTVVVDSRAREAVHDVQKQVEQIKLDVGKLLGALSALDVAQIAEQSNTSVANLSAPKQSHHDNIVFQKSFEAAPPSPVPSEKAELPATIQPSVHEQFNHRPAHVEEEIPLENHYAPPPHQQIPDDLNTSFSSQPPPPIEQFGAIPPPNATIPSFPTSNAASPPVQEFAPPPPQQQQQQFQAPPPPMASHSSISSTPVQQQGFAPPQQFGGPPPSGPPSEYGGYAPPQQQQQQFGAPPPQGAPQQGFGAPPQGPPQGGPPQGSFGAPPPQQFHAPSPQSFGGPPPPVSSAPGNFAPPPQSGPPGAFAPPPSAFGAPQGPGGPGGYGPPPPGGPGAPGSYGPPQGGPGGFGPPPPGGPGAYGPPPTGFPPVGAPPPGAAGAPGGNPFARGPSATGYRQSPYQQ	not soluble
MQNHVISLASAAERRAHIAATFGSRGIPFQFFDALMPSERLEQAMAELVPGLSAHPYLSGVEKACFMSHAVLWEQALDEGLPYIAVFEDDVLLGEGAEQFLAEDTWLEERFDKDSAFIVRLETMFMHVLTSPSGVADYGGRAFPLLESEHCGTAGYIISRKAMRFFLDRFAVLPPERLHPVDLMMFGNPDDREGMPVCQLNPALCAQELHYAKFHDQNSALGSLIEHDRRLNRKQQWRDSPANTFKHRLIRALTKIGREREKRRKRREQTIGKIIVPFQLEHHHHHH	soluble
MENEMKEKAVIFTGNSISHEDAKKILLANYQPPVRRFQLEKFIQQGYKVMGIIDGIFFDRAAVGHREIISALNAGVRVVGGASMGALRASELDTHGMIGVGKVYEWYRDGVIESDDEVAISTNPETFEPISVPLVNIRETLKAALGAGILSEKEYEDILELAISTYYPDRSYLGLTKEGAKKGLISEEKRKLLLDFCINSEVDVKKRDAVLVIETVKRLVEETEV	not soluble
YRENDPRLQLAFKLFLDGCTDKEVEQQTGINRRTFRRYRMKYGITNSLRHKND	not soluble
GAKLNRKLRQDSTDRYKTKLYLWRNLGGLIPEDMAISVTESITADWKQYNDMMSKVRNETLDILKTNKVATEDYIGYIAFAEELAHQVWKNKNSSPDPNTANEASKTDLESKYSDVYGLDVTVLDAIYNAVIPIIMGGGS	soluble
GVSFFLVKEKMKGKNKLVPRLLGITKECVMRVDEKTKEVIQEWSLTNIKRWAASPKSFTLDFGDYQDGYYSVQTTEGEQIAQLIAGYIDIIL	soluble
